The record followed here is publication PMC6744903.

The target in the experiment is MBP-XerD (V. cholerae) (UniProt Q9KPE9). In words: pull-down.

Substance purified XafT peptide (natural protein) registered a fold XafT recovered against amylose beads alone of 3 fold.
